The text below walks through data of patent US20190112393 (published 2019).

The target in one assay is human FcRn (human). In words: SPR, pH 6.0.
A further assay concerns the target T1, human FcγRIa (human, UniProt P12314).
T1 chain: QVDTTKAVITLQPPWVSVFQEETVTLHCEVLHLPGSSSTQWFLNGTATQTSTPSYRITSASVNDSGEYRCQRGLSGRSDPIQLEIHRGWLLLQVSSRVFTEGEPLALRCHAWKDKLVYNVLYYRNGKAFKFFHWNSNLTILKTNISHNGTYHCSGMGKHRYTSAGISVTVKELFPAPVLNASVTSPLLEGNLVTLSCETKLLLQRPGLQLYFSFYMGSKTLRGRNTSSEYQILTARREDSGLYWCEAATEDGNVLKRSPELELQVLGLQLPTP
In words: SPR. For orientation: Surface plasmon resonance follows binding to a sensor surface in real time, without labels.

The target in another assay is T2, human FcγRIIb (human, UniProt P31994).
T2 chain: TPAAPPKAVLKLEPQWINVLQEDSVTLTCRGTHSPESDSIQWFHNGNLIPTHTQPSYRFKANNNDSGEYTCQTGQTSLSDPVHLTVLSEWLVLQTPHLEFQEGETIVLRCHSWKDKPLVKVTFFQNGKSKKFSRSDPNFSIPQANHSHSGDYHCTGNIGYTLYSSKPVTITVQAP
The assay can be described thus: SPR.

human FcRn (human), sequence (chain, as listed by the source, chain 1 of 2): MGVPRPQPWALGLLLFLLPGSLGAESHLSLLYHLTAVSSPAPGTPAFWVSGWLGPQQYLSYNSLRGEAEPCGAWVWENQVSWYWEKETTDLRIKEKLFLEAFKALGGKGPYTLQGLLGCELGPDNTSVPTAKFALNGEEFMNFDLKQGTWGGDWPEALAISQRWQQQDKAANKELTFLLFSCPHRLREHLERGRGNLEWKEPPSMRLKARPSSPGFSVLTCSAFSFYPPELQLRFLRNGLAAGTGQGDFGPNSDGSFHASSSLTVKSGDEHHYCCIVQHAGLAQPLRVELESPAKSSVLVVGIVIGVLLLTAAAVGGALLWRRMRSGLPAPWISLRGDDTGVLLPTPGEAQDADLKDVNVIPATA
human FcRn (human), sequence (chain, as listed by the source, chain 2 of 2): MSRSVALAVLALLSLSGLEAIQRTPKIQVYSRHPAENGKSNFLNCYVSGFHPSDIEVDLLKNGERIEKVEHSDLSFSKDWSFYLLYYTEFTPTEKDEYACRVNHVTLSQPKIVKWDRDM

B1: F1385 (antibody)
chain 1: QVQLQESGPGLVKPSETLSLTCAVSGHSISHDHAWSWVRQPPGEGLEWIGFISYSGITNYNPSLQGRVTISRDNSKNTLYLQMNSLRAEDTAVYYCARSLARTTAMDYWGEGTLVTVSSASTKGPSVFPLAPSSKSTSGGTAALGCLVKDYFPEPVTVSWNSGALTSGVHTFPAVLQSSGLYSLSSVVTVPSSSLGTQTYICNVNHKPSNTKVDKKVEPKSCDKTHTCPPCPAPELLGGPSVFLFPPKPKDTLMISRTPEVTCVVVDVSHEDPEVKFNWYVDGVEVHNAKTKPREEQYNSTYRVVSVLTVLHQDWLNGKEYKCKVSNKALPAPIEKTISKAKGQPREPQVYTLPPSRDELTKNQVSLTCLVKGFYPSDIAVEWESNGQPENNYKTTPPVLDSDGSFFLYSKLTVDKSRWQQGNVFSCQVLHEALHSHYTQKSLSLSP
chain 2: DIQMTQSPSSLSASVGDSVTITCQASTDISSHLNWYQQKPGKAPELLIYYGSHLLSGVPSRFSGSGSGTDFTFTISSLEAEDAATYYCGQGNRLPYTFGQGTKVEIERTVAAPSVFIFPPSDEQLKSGTASVVCLLNNFYPREAKVQWKVDNALQSGNSQESVTEQDSKDSTYSLSSTLTLSKADYEKHKVYACEVTHQGLSSPVTKSFNRGEC
In the assay with human FcRn, B1 displayed a Kd of 77 nM.

B2: F1392 (antibody)
chain 1: QVQLQESGPGLVKPSETLSLTCAVSGHSISHDHAWSWVRQPPGEGLEWIGFISYSGITNYNPSLQGRVTISRDNSKNTLYLQMNSLRAEDTAVYYCARSLARTTAMDYWGEGTLVTVSSASTKGPSVFPLAPSSKSTSGGTAALGCLVKDYFPEPVTVSWNSGALTSGVHTFPAVLQSSGLYSLSSVVTVPSSSLGTQTYICNVNHKPSNTKVDKKVEPKSCDKTHTCPPCPAPELLGGPSVFLFPPKPKDTLMISRTPEVTCVVVDVSHEDPEVKFNWYVDGVEVHNAKTKPREEQYNSTYRVVSVLTVLHQDWLNGKEYKCKVSNKALPAPIEKTISKAKGQPREPQVYTLPPSRDELTKNQVSLTCLVKGFYPSDIAVEWESNGQPENNYKTTPPVLDSDGSFFLYSKLTVDKSRWQQGNVFSCSVLHEALHSHKTQKSLSLSP
chain 2: DIQMTQSPSSLSASVGDSVTITCQASTDISSHLNWYQQKPGKAPELLIYYGSHLLSGVPSRFSGSGSGTDFTFTISSLEAEDAATYYCGQGNRLPYTFGQGTKVEIERTVAAPSVFIFPPSDEQLKSGTASVVCLLNNFYPREAKVQWKVDNALQSGNSQESVTEQDSKDSTYSLSSTLTLSKADYEKHKVYACEVTHQGLSSPVTKSFNRGEC
Regarding B2, binding in the assay with human FcRn was characterised by a dissociation constant (Kd) of 270 nM.

B3: F1388 (antibody)
chain 1: QVQLQESGPGLVKPSETLSLTCAVSGHSISHDHAWSWVRQPPGEGLEWIGFISYSGITNYNPSLQGRVTISRDNSKNTLYLQMNSLRAEDTAVYYCARSLARTTAMDYWGEGTLVTVSSASTKGPSVFPLAPSSKSTSGGTAALGCLVKDYFPEPVTVSWNSGALTSGVHTFPAVLQSSGLYSLSSVVTVPSSSLGTQTYICNVNHKPSNTKVDKKVEPKSCDKTHTCPPCPAPELLGGPSVFLFPPKPKDTLMISRTPEVTCVVVDVSHEDPEVKFNWYVDGVEVHNAKTKPREEQYNSTYRVVSVLTVLHQDWLNGKEYKCKVSNKALPAPIEKTISKAKGQPREPQVYTLPPSRDELTKNQVSLTCLVKGFYPSDIAVEWESNGQPENNYKTTPPVLDSDGSFFLYSKLTVDKSRWQQGNVFSCSVLHEALHSHFTQKSLSLSP
chain 2: DIQMTQSPSSLSASVGDSVTITCQASTDISSHLNWYQQKPGKAPELLIYYGSHLLSGVPSRFSGSGSGTDFTFTISSLEAEDAATYYCGQGNRLPYTFGQGTKVEIERTVAAPSVFIFPPSDEQLKSGTASVVCLLNNFYPREAKVQWKVDNALQSGNSQESVTEQDSKDSTYSLSSTLTLSKADYEKHKVYACEVTHQGLSSPVTKSFNRGEC
Take B3: the Kd with human FcRn is 80 nM.

B4: F1380 (antibody)
chain 1: QVQLQESGPGLVKPSETLSLTCAVSGHSISHDHAWSWVRQPPGEGLEWIGFISYSGITNYNPSLQGRVTISRDNSKNTLYLQMNSLRAEDTAVYYCARSLARTTAMDYWGEGTLVTVSSASTKGPSVFPLAPSSKSTSGGTAALGCLVKDYFPEPVTVSWNSGALTSGVHTFPAVLQSSGLYSLSSVVTVPSSSLGTQTYICNVNHKPSNTKVDKKVEPKSCDKTHTCPPCPAPELLGGPSVFLFPPKPKDTLMISRTPEVTCVVVDVSHEDPEVKFNWYVDGVEVHNAKTKPREEQYNSTYRVVSVLTVLHQDWLNGKEYKCKVSNKALPAPIEKTISKAKGQPREPQVYTLPPSRDELTKNQVSLTCLVKGFYPSDIAVEWESNGQPENNYKTTPPVLDSDGSFFLYSKLTVDKSRWQQGNVFSCDVLHEALHSHYTQKSLSLSP
chain 2: DIQMTQSPSSLSASVGDSVTITCQASTDISSHLNWYQQKPGKAPELLIYYGSHLLSGVPSRFSGSGSGTDFTFTISSLEAEDAATYYCGQGNRLPYTFGQGTKVEIERTVAAPSVFIFPPSDEQLKSGTASVVCLLNNFYPREAKVQWKVDNALQSGNSQESVTEQDSKDSTYSLSSTLTLSKADYEKHKVYACEVTHQGLSSPVTKSFNRGEC
As to B4, the equilibrium dissociation constant (Kd) in the assay with human FcRn worked out at 73 nM.

B5: BP547 (antibody)
chain 1: QVQLQESGPGLVKPSETLSLTCAVSGHSISHDHAWSWVRQPPGEGLEWIGFISYSGITNYNPSLQGRVTISRDNSKNTLYLQMNSLRAEDTAVYYCARSLARTTAMDYWGEGTLVTVSSASTKGPSVFPLAPSSKSTSGGTAALGCLVKDYFPEPVTVSWNSGALTSGVHTFPAVLQSSGLYSLSSVVTVPSSSLGTQTYICNVNHKPSNTKVDKKVEPKSCDKTHTCPPCPAPDLLGDDSVFLFPPKPKDTLMISRTPEVTCVVVDVSDEDGEVKFNWYVDGVEVHNAKTKPREEQDNSTYRVVSVLTVLHQDWLNGKEYKCKVSNKALPRPIEKTISKAKGQPREPQVYTLPPSRDELTKNQVSLTCLVKGFYPSDIAVEWESNGQPENNYKTTPPVLDSDGSFFLYSRLTVDKSRWQQGNVFSCSVMHEALHNHYTQESLSLSP
chain 2: not shown
For B5, the Kd is 12 nM in the assay with human FcγRIa and 19 nM with human FcγRIIb.

B6: BP542 (antibody)
chain 1: QVQLQESGPGLVKPSETLSLTCAVSGHSISHDHAWSWVRQPPGEGLEWIGFISYSGITNYNPSLQGRVTISRDNSKNTLYLQMNSLRAEDTAVYYCARSLARTTAMDYWGEGTLVTVSSASTKGPSVFPLAPSSKSTSGGTAALGCLVKDYFPEPVTVSWNSGALTSGVHTFPAVLQSSGLYSLSSVVTVPSSSLGTQTYICNVNHKPSNTKVDKKVEPKSCDKTHTCPPCPAPDLLGDDSVFLFPPKPKDTLMISRTPEVTCVVVDVSDEDGEVKFNWYVDGVEVHNAKTKPREEQFNSTYRVVSVLTVLHQDWLNGKEYKCKVSNKALPRPIEKTISKAKGQPREPQVYTLPPSRDELTKNQVSLTCLVKGFYPSDIAVEWESNGQPENNYKTTPPVLDSDGSFFLYSKLTVDKSRWQQGNVFSCSVMHEALHNHYTQESLSLSP
chain 2: not shown
With B6, in the assay with human FcγRIIb, the affinity, expressed as Kd, was 20 nM.

B7: BP546 (antibody)
chain 1: QVQLQESGPGLVKPSETLSLTCAVSGHSISHDHAWSWVRQPPGEGLEWIGFISYSGITNYNPSLQGRVTISRDNSKNTLYLQMNSLRAEDTAVYYCARSLARTTAMDYWGEGTLVTVSSASTKGPSVFPLAPSSKSTSGGTAALGCLVKDYFPEPVTVSWNSGALTSGVHTFPAVLQSSGLYSLSSVVTVPSSSLGTQTYICNVNHKPSNTKVDKKVEPKSCDKTHTCPPCPAPDLLGDDSVFLFPPKPKDTLMISRTPEVTCVVVDVSDEDGEVKFNWYVDGVEVHNAKTKPREEQDNSTYRVVSVLTVLHQDWLNGKEYKCKVSNKALPRPIEKTISKAKGQPREPQVYTLPPSRDEMTKNQVSLTCLVKGFYPSDIAVEWESNGQPENNYKTTPPVLDSDGSFFLYSKLTVDKSRWQQGNVFSCSVMHEALHNHYTQESLSLSP
chain 2: not shown
As for B7, the figures for the Kd in the assay with human FcγRIa and with human FcγRIIb were 9 nM and 15 nM, respectively.

B8: BP230 (antibody)
chain 1: QVQLQESGPGLVKPSETLSLTCAVSGHSISHDHAWSWVRQPPGEGLEWIGFISYSGITNYNPSLQGRVTISRDNSKNTLYLQMNSLRAEDTAVYYCARSLARTTAMDYWGEGTLVTVSSASTKGPSVFPLAPSSKSTSGGTAALGCLVKDYFPEPVTVSWNSGALTSGVHTFPAVLQSSGLYSLSSVVTVPSSSLGTQTYICNVNHKPSNTKVDKKVEPKSCDKTHTCPPCPAPDLLGDDSVFLFPPKPKDTLMISRTPEVTCVVVDVSDEDGEVKFNWYVDGVEVHNAKTKPREEQDNSTYRVVSVLTVLHQDWLNGKEYKCKVSNKALPRPIEKTISKAKGQPREPQVYTLPPSRDELTKNQVSLTCLVKGFYPSDIAVEWESNGQPENNYKTTPPVLDSDGSFFLYSKLTVDKSRWQQGNVFSCSVMHEALHNHYTQESLSLSP
chain 2: not shown
In the case of B8, the results for the Kd in the assay with human FcγRIa and with human FcγRIIb were 10 nM and 18 nM, respectively.

B9: BP545 (antibody)
chain 1: QVQLQESGPGLVKPSETLSLTCAVSGHSISHDHAWSWVRQPPGEGLEWIGFISYSGITNYNPSLQGRVTISRDNSKNTLYLQMNSLRAEDTAVYYCARSLARTTAMDYWGEGTLVTVSSASTKGPSVFPLAPSSKSTSGGTAALGCLVKDYFPEPVTVSWNSGALTSGVHTFPAVLQSSGLYSLSSVVTVPSSSLGTQTYICNVNHKPSNTKVDKKVEPKSCDKTHTCPPCPAPDLLGDDSVFLFPPKPKDTLMISRTPEVTCVVVDVSDEDGEVKFNWYVDGVEVHNAKTKPREEQDNSTYRVVSVLTVLHQDWLNGKEYKCKVSNKALPRPIEKTISKAKGQPREPQVYTLPPSREELTKNQVSLTCLVKGFYPSDIAVEWESNGQPENNYKTTPPVLDSDGSFFLYSKLTVDKSRWQQGNVFSCSVMHEALHNHYTQESLSLSP
chain 2: not shown
B9: binding with human FcγRIIb was put at a Kd of 17 nM.

Broadly, the Kd is a measure of binding affinity in units of concentration. A lower Kd goes with higher affinity.
